Consider 23 sequences from the DeepSol protein solubility set.

The data set in a line: soluble on expression in E. coli; label from the status in PepcDB or PDB records.
With “PRVELEIPEDVDAEQDHLDITVEGDNGSVTRRLWYPDIDVSVDGDTVVIESDEDNAKTMSTIGTFQSHIENMFHGVTEGWEYGMEVFYSHFPMQVNVEGDEVVIENFLGEKAPRRTTIHGDTDVEIDGEELTVSGPDIEAVGQTAADIEQLTRINDKDVRVFQDGVYITRKPNRGDA”, the “soluble on expression in E. coli” value was “soluble”.

For the sequence “MGSDKIHHHHHHMSLPKYVEQLLKEKSNVRVFSFKYDGKSYWLKQTEKLSFIWRFLKSNPAEMLKSEIIRLQELNKKSAPVPKLVLFGDNFFVTEDVGSSANTWVENEDLSIELRNKVLFDCAQALASLHKQNITHGRPALRDMIWCEEKVIFVDFECTSSSNNIDWQKIRDGLVFIHSLGRSSTVSDEQIALTVTHYRQYCDADIWQKTADFIYKYRWAYYVLRIFKPVARMDLIAIYRLFEAILKNQETL”, the “soluble on expression in E. coli” value is “not soluble”.

“ADQLLRKKRRIFIHSVGAGTINALLDCLLEDEVISQEDMNKVRDENDTVMDKARVLIDLVTGKGPKSCCKFIKHLCEEDPQLASKMGLH”: the “soluble on expression in E. coli” value is reported as “soluble”.

For “MGNSYITKEDNQISATSEQTEDSACLSAMVLTTNLVYPAVLNAAIDLNLFEIIAKATPPGAFMSPSEIASKLPASTQHSDLPNRLDRMLRLLASYSVLTSTTRTIEDGGAERVYGLSMVGKYLVPDESRGYLASFTTFLCYPALLQVWMNFKEAVVDEDIDLFKNVHGVTKYEFMGKDKKMNQIFNKSMVDVCATEMKRMLEIYTGFEGISTLVDVGGGSGRNLELIISKYPLIKGINFDLPQVIENAPPLSGIEHVGGDMFASVPQGDAMILKAVCHNWSDEKCIEFLSNCHKALSPNGKVIIVEFILPEEPNTSEESKLVSTLDNLMFITVGGRERTEKQYEKLSKLSGFSKFQVACRAFNSLGVMEFYK”, the “soluble on expression in E. coli” value is given as “soluble”.

As for “MSDSAVVAAAVEPKVPKAKAAKAAKPTKVAKAKAPVAHPPYINMIKEAIKQLKDRKGASKQAILKFISQNYKLGDNVIQINAHLRQALKRGVTSKALVQAAGSGANGRFRVPEKAAAAKKPAAAKKPAAAKKPAAAKKATGEKKAKKPAAAKPKKAATGDKKVKKAKSPKKVAKPAAKKVAKSPAKKAAPKKIAKPAAKKAAKPAAKA”, the “soluble on expression in E. coli” value is “soluble”.

Turning to “MIEWQDLHHSELSVSQLYALLQLRCAVFVVEQNCPYQDIDGDDLTGDNRHILGWKNDELVAYARILKSDDDLEPVVIGRVIVSEALRGEKVGQQLMSKTLETCTHHWPDKPVYLGAQAHLQNFYQSFGFIPVTEVYEEDGIPHIGMAREVIQALEHHHHHH”, the “soluble on expression in E. coli” value is on record as “not soluble”.

Consider “SYETSQHNLDAVEAVLSRLQKQTGEMAAYMVPVGYRALCVSQRESMQALRCSFVQGQSQPLLRGASSKVMLAYMPAARCEKILRYFGEDPTLDKWQSEFEKIRRHGYAVSTSEIDPGVSGISAPVMKGSKLIGAISVMAPAHRVESNKQRIILHVLQAARALPPER”, for which the “soluble on expression in E. coli” value was “not soluble”.

As to “MDKSTKDFMDLKKIGGDDERERRFSDASDTSMDCHMESIGSRRRDSLIEQFRDFLNRSMDFSVKIDDPFEKEMY”, the “soluble on expression in E. coli” value is given as “not soluble”.

Turning to “MKYLHTEKDYLDLLLAVKRKFDYQRSIVPYIVYFLLKTGMRFGELVALTWNEVDFDRGLLKTYRRYNTLSHKFVPPKNKTSIRMVPIDEECIKILRLLQTEQERANMELGIKNRYRMIFQHFGYIHSVPDIASVNKALSVLLNELDIYPIITTKGARHTYGSYLWHKGFDLGVIAKILGHRDISMLVEVYGHTLEEKIFEEFNQIRDIWKDCSLEHHHHHH”, the “soluble on expression in E. coli” value was “not soluble”.

On to “MKKNLLLLLCLFCLVNVCHAKAKDTFTVFQLNLWHGCTKVPNGDQGIIDVLDQMDADVVFLCEIRDGKQFIPHVIEELEKRGKHYYGETFDLAIGVLSKFKPDSWTKCCIVPGDEGRAMVKMVATIEGQPVSFYSCHLDYRHYQCYMPRGYNGTTWKKMDKPITDEEEVLKANRQSFRDETIRAFIQEVQSDIQQGRPIIMGGDFNEPSHLDWQADTKDLWDHNGAIIHWDCSMMLSKAGFKDAYREKFPNTVRYPGFTFPAGNKLAEEAKLEKLAWAPEADERDRIDFIYYYPLESMLSMKDSKLVGPSETVVRGKITENDSKDKILTPSCIWPSDHKGNLATFKIRKKRLEHHHHHH”, for which the “soluble on expression in E. coli” value is given as “not soluble”.

As for “QGTDQYTILANRIANAVEQYRSQRALDASRERLSLFIDKSPLGVIEWDESFEVVQVNEKGEEILRRGESALAGKGFETLVPDSALDAVEETITALQEGSGGYYTVLDIETGDGEEIVCEWHNRIIREDGETVAIFSQFQEIT”, the “soluble on expression in E. coli” value is “not soluble”.

On to “MDGPHGTPVLDRIAKLREELPPPAVPGKGQKTDGRWFDGNGAVRDSVSGKDVDSEEAWRLLRESGIPLPRPPVVAHAEMKVAAAMRRLNVRHAVLVITNVPCDERWSCENLLPAVLPVGCSLSVHGPGYQRTFHGRTPKW”, for which the “soluble on expression in E. coli” value was “not soluble”.

“MSLNFTLHTLNGIKLWLVLLLLSGAINVCRADSPRQTINFNRGWKYCQGDFDHAARPGFDDSEWEKIGLPHSFSTPYFMSKDFYVGYGWYRKAFPVKKEILGKKSFLEFDGVFQEAEIFVNGHLAGTHKGGYTGFSIDISAYLKEGKNLVAVRVNNCWRPDLAPRAGEHVFSGGIYRNVRLVIKPPTYIDWYGTWITTPDLAENKGKSGSVHIRTDVCNASGKTDTYRLLTTVVDAQGKEVSSVSTSQVLPDNATYTFEQQTKEIQAPQLWHPNHPALYKVISSLYHGQELIDRYETAFGFRWFEWTADRGFFLNGEHLYFKGANVHQDHAGWGDAVTETGMRRDIRLVKEAGFDLIRGSHYPHSPAFSQACDEIGMLFWAENAFWGIGGHKGDGYWNASAYPVNESDRAEFENSVKAQLKELIRIHRNHPSIIVWSMSNEPFFTAPETINPMRKLLEETVKLSKQLDPTRPAAVGGAQRPLGEKRIDKLGDIAGYNGDGSYIPEFQQPGMPTVVSEYGSTTADRPGEYDPGWGDLAKNNAQNGFPWRSGQAIWCAFDHGSIAGSALGKMGIIDYFRIPKRAWYWYRNAYKGITEGHHHHHH”: the “soluble on expression in E. coli” value was “not soluble”.

“MGSDKIHHHHHHMKVFITGGTGFVGSAVVQELVANGFEVVGLARSETSAQKLISWGAQPVRGSLTSLSTLATAAAQADAIIHLGFNNDFRHFFQAGAMDRRAIETMGRAISGTNKPLVVTYGTTGIRKHVETEHEVADTGLLKWLTPRKSEIVARQLMAQNINAFVVRLSPAVHGAGDMGFTRTVIERAKKSHRAEYFGLGTHAWSAVHRLDAAHLFYLVTMYGLEHPTTNERVFNAVAEESITIAAIARTISRKLNVPLKAKYNPLSFGDTAMLYLINCPTSSQLTRQILGWVPVQPDLLTDISSSRY”: the “soluble on expression in E. coli” value is given as “not soluble”.

With “MGSDKIHHHHHHMRLILSQCLANLSVRFLMNRNSYNKIAHLWNVARNGFFGREREYLDAILSVAPIGSTILDLGCGTGRPMAEYIVSRGRCVLGVDQSEEMLRLARQKLPHEQWVLSSIESYEPVEGYHGALLWDSLFHIRRTEHELIVSKVVRGLPSGGRLMLTVGGSAHPEFTDFMYGEEFYYDSNTPQETETFLQRLSCRMVIGEYMNLPDGGRDKGRYAIVAEKI”, the “soluble on expression in E. coli” value is “not soluble”.

“MKINNLVDLHCHILPAIDDGSPSLEASLELARQAVADGIRYILATPHHMDRHYLNHAGDVVAAVEAFQAELDVNDIPLTIFPGQEVHLNGQLMEKVDDLLSIDTGRHYLLLELPHEMVPSYLDEMIFQLSCEGITPVIAHPERNAQIIAEPQRLYKLAEDGVLAQVTATSLVGTFGEQVQRTAKEFVKCGLVQVVASDAHTLKNRGFAMTKAYQVLNEMDSKYPERFATNARDLLNGEQIEMGQIEIPRKQRKHWLF”: the “soluble on expression in E. coli” value is listed as “not soluble”.

As for “GMPAPLRFSSDKPLLLLIDMQQAVDDPSWGPRNHPQAEQACAGLLQAWRARGLPLIHIRHDSVEPNSTYRPGQPGHAFKPEVEPRPGETVIAKQTNSAFIGTGLEALLRANGWLELVVAGVSTSNSVEATVRMAGNLGFAVCLAEDGCFTFDKTDWHGRRRSADEVHAMSLANLDGEYCRVCGSADILAALGNIAGAA”, the “soluble on expression in E. coli” value is listed as “soluble”.

As to “SDCLIVVDTRAAIRRVNRAALTMLGYDEEQLLGMPVGVIFAWERDKERLRTEGLRCFVESIGSSPAEFTFLSSDERRTPVLLSASPMLGRD”, the “soluble on expression in E. coli” value was “not soluble”.

For the sequence “MQDRSCYKLTQEGERLFRMQKYEKGIDLLKKALEVGTDDFSLLSAIYCQLGNAHTMLKDYEQALKFHTYDILVERLLGNKEGEAKSCANLGNIFKMKGAYNDALTFTFKQLDFAEELGDRVLKSRAYYNIATIYVERGRCTKLEAAEEKNDAKNAEATSDFENAAKYFMLNLEMSEKSEDALTMGRCYGSLGNTYYCLGDYDQSIHFHKLRLELSQQYGDRASMRRAHANIANCHALKSNMPLAIQHYKLAYNLAIEIGNKTEEAQMAYSLANALYIGKEVQKAITYFQRHLKIARSLEDISGQLRSYYSLALSFNNLCERRKALYFLVLAKRSSLQVNDTSALTDIDNLLNEILEAGQEDVLVDDIELIIDESADPAPADIEHRELRLTYFQKRNIHDKPVNTPEDPLAEDRYEKEEFFDMLAKLQSKRMNDQRVDASVLSSNLDFRVRQVDTEPDNSSTDGSEVLIDLLLNAQGRRMDDQRAPFLPGLNPNGQIILRRLNTDPGNEELDEHLVEWLMRVQGERLDEQRSELPPIKPEGQEEVDKKKEEDVTAIVMRMQAGRLEDQRAHLPNIPTSKN”, the “soluble on expression in E. coli” value is on record as “not soluble”.

Consider “MAHHHHHHMHFSQYPLRLTDLERQKLQLIVAALKVSEYTDDVDDFMRPYGKEGRMEAAMREFIDIVVGLAIASDAIPRSVKNSFLAGEVKVATVVPLLEDLFEIMRRHKRLNPFSHRGEFGKLMMMLQDVQKRSLQRALEIQSTLVIPVRTVEAALSSIYCETLVDDEAVRTDYLKRTGAEKQAGMQSLIERYGKGDEHKKEVIEHCLRSIDDVYSFIQSNTRPLRTLRRWLSRDFEPLPSDDVYSISIRHGRSGACFTHSHATHCQYVTESLLLWENVQKNILNLWEAAEDDMLVEGQGQYVVANTGQGFHRMCSAPKSYGVMSRLVRDTEQRMGGWVGIKVIHLGDRDVPNPLVFIDKYTVIPRLVKPVVQTLHALRYVLHEEDEEEEGQPQVAHEYDNYPGLRNLLRSKYHSYSELMMMILSDFFKHAFDGSGDDGGSCIDGRLTSAWNWCHQLHKKKYYDAFVLTGFAGFD”, for which the “soluble on expression in E. coli” value is given as “not soluble”.

In the case of “MKDNRYSPDWPQLALQKKQAVGWVCERCGVQCLKPGEGKGLLKEERYRLRMAVHHCDYDPSNNSPSNLMALCSPCHLHYHQRQRGNVTPGQLSLGFVYRSCLVCAQQLEHHHHHH”, the “soluble on expression in E. coli” value is “not soluble”.

In the case of “KLGAPVKKAILEALSERDQTADICKDSKGNIEPDTQLRDTELVAFPDHLTLPLPVNYDKEPDLSKLLPLVKAHCEAYLKAEVLPHVADAWIDYSKTKVGYEIPINRHFYIYEPPRPLEEIKAEIVQLEQEIMQMLGGLSA”, the “soluble on expression in E. coli” value is recorded as “not soluble”.

For the sequence “MSGINGAGPSNFFWRWRADDEPVTERERDSSSGANLTNSPQLRPESPTVSGRRLLRSNALSRQTREWQETTSASAERATPPVEPRQPPEAQPAERIVAERIVQELVRAGANLNNVRTMLRNVMDNNAVAFSRVEWNILLQHFPDMHTNGISSDSVLANELRQTLRQVVHQQRTQRALAPILSPAPSRPVASSSRSSQRTLLGRFTGWMAPRQTSSSSQATSSTSVDRHPQDLNQLESLRLADAERRNRSANQTDTDEALRRLTQAGVDMERLSTSLGRYIHSFQPAPPDLRRLLESVGIDPDIPEELTLVNNPVLNLNVALNRMLASRQATTESSSVFPSRAGDTRVRTLPVMPEREDNENNVAYGVRLLRLNPEAEVERVVEAFITDPSSRPEVVADIHAVLRSITSQFRQLRTISKADAESQDFRDAADYPDDPTSCLFGEDLSLSNPHQQVIGLAGESTDILQPYSQEGNKALRFMDMKKLAEHLASKPVHPMNRDRLDDKNIAGYAFRVVPD”, the “soluble on expression in E. coli” value is on record as “not soluble”.
